Reference: patent US20220242950A1 (CANTARGIA, published 2022)
Read-outs that look alike come from different tables or passages of the source.

What was measured:
[1] = target: T1, human IL1RAP on the cell surface (human, UniProt Q9NPH3 21-570); assay: flow cytometry on SKMEL-5 cells, Alexa488 anti-human IgG secondary
T1 construct: whole, on cells; Endogenous IL1RAP of human cell lines and blood cells; also called cell membrane IL1RAP; IL1RAP-expressing SKMEL-5 cells
T1 sequence (looked up): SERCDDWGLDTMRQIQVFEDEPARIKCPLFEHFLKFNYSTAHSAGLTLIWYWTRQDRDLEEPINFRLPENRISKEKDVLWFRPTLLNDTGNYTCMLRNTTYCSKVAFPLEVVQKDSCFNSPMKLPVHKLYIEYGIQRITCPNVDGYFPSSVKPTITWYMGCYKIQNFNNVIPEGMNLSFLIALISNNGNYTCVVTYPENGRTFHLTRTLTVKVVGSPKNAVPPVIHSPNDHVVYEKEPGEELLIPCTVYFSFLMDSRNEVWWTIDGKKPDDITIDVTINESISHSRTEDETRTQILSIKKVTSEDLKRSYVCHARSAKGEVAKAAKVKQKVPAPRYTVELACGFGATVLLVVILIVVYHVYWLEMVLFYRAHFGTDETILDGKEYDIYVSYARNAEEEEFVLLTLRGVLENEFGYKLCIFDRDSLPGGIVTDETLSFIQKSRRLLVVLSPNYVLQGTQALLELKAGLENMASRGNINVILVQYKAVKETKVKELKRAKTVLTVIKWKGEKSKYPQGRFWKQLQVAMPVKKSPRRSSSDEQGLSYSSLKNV
Experimental: FIG. 12: Dose-dependent binding of chimeric 48D2 to cell membrane IL1RAP Chimeric 48D2 or hIgG1 (hIg=human immunoglobulin) isotype control antibody was added to SKMEL-5 cells in increasing concentrations and extracellular binding was analyzed by flow cytometry. Chimeric 48D2 specifically bound IL1RAP on the cell membrane in a dose-dependent manner and with higher mean fluorescent intensity (MFI) compared to the hIgG1 isotype control antibody.
The malignant melanoma (or malign melanoma) cell line SKMEL-5, which expresses IL1RAP on the cell surface, was used for the analysis. SKMEL-5 cells were cultured according to standard procedures. 5×10⁴ SKMEL-5 cells were blocked with human Fc block and then stained with 8-step serial dilutions (100 μg/ml-0.03 μg/ml) of chimeric 48D2 or isotype control antibody. Following secondary staining using Alexa488-conjugated anti-human IgG antibody, 10000 cells/sample were analyzed on a CytoFlex (Beckman Coulter). HTB183 cells expressing low levels of surface IL1RAP were used as negative controls.

[2] = target: T1, human IL1RAP on the cell surface; assay: cell-based or functional assay
[3] = target: T2, recombinant hIL1RAP Domain1+2+3 (aa21-367) (human, UniProt Q9NPH3 21-367); assay: BLI (BLItz), antibody on Protein A biosensor, hIL1RAP (21-367) in solution
T2 construct: Numbering on Uniprot Q9NPH3
T2 sequence (looked up): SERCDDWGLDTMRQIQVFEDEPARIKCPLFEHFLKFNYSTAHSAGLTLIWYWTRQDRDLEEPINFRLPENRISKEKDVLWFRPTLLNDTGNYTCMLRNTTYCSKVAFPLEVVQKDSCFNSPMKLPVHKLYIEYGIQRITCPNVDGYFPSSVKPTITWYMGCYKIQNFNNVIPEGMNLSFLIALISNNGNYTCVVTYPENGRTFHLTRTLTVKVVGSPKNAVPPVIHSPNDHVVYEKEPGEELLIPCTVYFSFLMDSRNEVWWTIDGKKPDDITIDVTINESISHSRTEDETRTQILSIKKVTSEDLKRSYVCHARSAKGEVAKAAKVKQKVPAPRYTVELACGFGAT
Experimental: (§1) Affinity measurements were done on BLItz™ Label-Free Protein Analysis System from ForteBio, using the Basic Kinetics module in the BLItz Pro 1.3.1.3 software from Molecular Devices. Protein A biosensors were hydrated in blocking buffer (PBS, 0.5% BSA, 0.05% Tween 20, pH 7.4) for minimum 10 min at room temperature before coating. Protein A biosensors were coated with antibodies by dipping the biosensors in 200 μl of antibody solution (10 μg/ml in blocking buffer) for 30 min at room temperature. The sensors were then incubated in 200 μl blocking buffer for at least 10 min before use. […] The baseline was made in blocking buffer with a duration time of 30 sec. Association was made for 120 sec in hIL1RAP followed by 120 sec dissociation in blocking buffer.
Affinity measurement results are shown in Table 4 for chimeric 48D2, as well as for humanized 48D2 variant VH5:VL4 (see Example 11) and for humanized and de-immunized 48D2 variant VH5.GL:VL4 (see Example 13). kₐ is the association rate constant, for characterization of the antibody binding to the target, kd is the dissociation rate constant, for characterization of the antibody dissociation from the target, and KD is the equilibrium dissociation constant between the antibody and its antigen, the ratio of kd/kₐ. […] The lower the KD value (lower concentration), the higher the affinity.

[4] = target: T3, mouse IL1RAP (mouse (Mus musculus), UniProt Q61730 21-367, limits assumed); assay: indirect ELISA on coated IL1RAP, goat anti-human antibody-alkaline phosphatase, absorbance at 405 nm
T3 construct: Coated ortholog in the cross reactivity ELISA; also called mIL1RAP; murine IL1RAP
T3 sequence (looked up): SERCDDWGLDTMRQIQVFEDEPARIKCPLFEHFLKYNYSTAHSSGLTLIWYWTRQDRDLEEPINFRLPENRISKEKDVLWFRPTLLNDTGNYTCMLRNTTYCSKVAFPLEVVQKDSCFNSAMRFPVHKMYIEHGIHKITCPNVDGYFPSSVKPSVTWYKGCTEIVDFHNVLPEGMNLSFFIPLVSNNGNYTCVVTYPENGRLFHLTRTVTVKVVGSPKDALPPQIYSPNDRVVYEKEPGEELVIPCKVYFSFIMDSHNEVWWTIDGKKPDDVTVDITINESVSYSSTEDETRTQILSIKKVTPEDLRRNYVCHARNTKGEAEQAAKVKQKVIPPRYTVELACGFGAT
Experimental: (§2) Microtiter plate wells were coated with IL1RAP orthologs (Mus musculus, Rattus norvegicus, Macaca fascicularis (Mf, synonymous to cynomolgus monkey), Oryctolagus cuniculus, Canis lupus familiaris, Sus scrofa) and incubated for 1 hour at 37° C. Plates were washed followed by a blocking step. After 1 hour incubation at room temperature on agitation, the plates were washed again. The antibody was diluted in fourfold serial dilution, ranging from 4000 ng/ml to 0.24 ng/ml, in ELISA blocking solution, and then transferred to the ELISA plate. Plates were incubated at 37° C. in 30 min on agitation and then washed. Goat Anti-Human antibody conjugated to Alkaline Phosphatase was added and incubated 30 min at 37° C. on agitation. The plates were washed followed by addition of substrate (4-Nitrophenyl phosphate disodium salt hexahydrate). The plates were thereafter incubated at room temperature on agitation and absorbance at 405 nm measured consecutively for 50 min. Absorbance at 0 min was taken as background signal.
(§3) The antibody is added in increasing concentrations and absorbance at 405 nm is used to detect binding of the antibody to IL1RAP orthologues. 48D2 is cross reactive to IL1RAP from human, cynomolgus monkey (cyno) and pig, but has no cross reactivity to IL1RAP from mouse, rat, rabbit or dog (FIG. 14 and Table 7).

[5] = target: T4, rat IL1RAP (rat (Rattus norvegicus), UniProt Q63621 21-367, limits assumed); assay: as above
T4 construct: also called rnIL1RAP
T4 sequence (looked up): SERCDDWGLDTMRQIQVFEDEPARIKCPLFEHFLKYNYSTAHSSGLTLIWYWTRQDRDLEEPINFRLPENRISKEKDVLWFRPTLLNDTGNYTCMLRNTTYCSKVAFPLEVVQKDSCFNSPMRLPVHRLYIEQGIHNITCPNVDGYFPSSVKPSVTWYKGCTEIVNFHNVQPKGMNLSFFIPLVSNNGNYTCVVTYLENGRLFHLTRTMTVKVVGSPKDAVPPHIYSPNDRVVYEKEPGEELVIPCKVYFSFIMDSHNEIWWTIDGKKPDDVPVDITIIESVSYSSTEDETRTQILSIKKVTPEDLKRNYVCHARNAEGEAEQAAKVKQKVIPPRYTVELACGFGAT
Experimental: as §2, §3

[6] = target: T1, human IL1RAP on the cell surface; assay: cell-based or functional assay; remark: listed apart in the source
[7] = target: T2, recombinant hIL1RAP Domain1+2+3 …; assay: bio-layer interferometry, human IL1RAP
Experimental: as §1
KD values for affinity towards human IL1RAP are shown in Table 17 for the de-immunized h48D2 variants. Affinity was measured using bio-layer interferometry. […] See also Table 4 for a direct comparison of 48D2, humanized 48D2, and de-immunized h48D2.

[8] = target: T1, human IL1RAP on the cell surface; assay: cell-based or functional assay; remark: listed apart in the source
[9] = target: T3, mouse IL1RAP; assay: indirect ELISA on coated IL1RAP, goat anti-human antibody-alkaline phosphatase, absorbance at 405 nm; remark: listed apart in the source
[10] = target: T4, rat IL1RAP; assay: as above; remark: listed apart in the source
[11] = target: T5, pig IL1RAP (pig (Sus scrofa), UniProt A0A287B9B9 21-357); assay: as above
T5 construct: also called ssIL1RAP
T5 sequence (A0A287B9B9 entry or part of it limits assumed): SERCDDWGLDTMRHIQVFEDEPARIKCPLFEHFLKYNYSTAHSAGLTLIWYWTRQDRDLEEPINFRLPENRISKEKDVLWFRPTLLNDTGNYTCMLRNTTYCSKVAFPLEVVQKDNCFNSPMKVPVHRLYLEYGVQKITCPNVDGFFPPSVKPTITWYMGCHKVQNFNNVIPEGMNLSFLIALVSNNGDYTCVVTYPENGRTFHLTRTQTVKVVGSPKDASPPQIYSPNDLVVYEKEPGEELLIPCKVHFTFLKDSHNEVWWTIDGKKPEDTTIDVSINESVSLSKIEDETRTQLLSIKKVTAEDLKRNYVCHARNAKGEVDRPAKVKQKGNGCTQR

[12] = target: T2, recombinant hIL1RAP Domain1+2+3 …; assay: as above
[13] = target: T6, recombinant mf IL1RAP aa21-367 (cynomolgus monkey (Macaca fascicularis), UniProt A0A2K5X5J5 21-367); assay: as above
T6 construct: also called cynomolgus monkey IL1RAP; cyno IL1RAP
T6 sequence: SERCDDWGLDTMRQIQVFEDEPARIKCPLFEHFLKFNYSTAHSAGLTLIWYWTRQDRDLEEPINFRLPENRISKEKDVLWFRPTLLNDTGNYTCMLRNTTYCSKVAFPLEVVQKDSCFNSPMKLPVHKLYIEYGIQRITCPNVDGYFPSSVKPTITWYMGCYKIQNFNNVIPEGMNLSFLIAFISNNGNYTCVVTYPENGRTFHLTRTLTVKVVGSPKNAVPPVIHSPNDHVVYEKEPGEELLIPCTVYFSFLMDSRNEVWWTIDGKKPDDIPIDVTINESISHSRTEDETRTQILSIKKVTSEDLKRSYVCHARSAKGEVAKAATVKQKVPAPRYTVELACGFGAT

B1: chimeric 48D2 (antibody, V domains shown, not shown: a dimerising Fc or GST)
VH: QEQLEESGGGLVKPGGSLTLTCTVSGPSLSHFDITWVRQAPGSGLEWIGTISPGVSTYYASWAKSRSTITSNTNLNTVTLKMTSLTAADTATYFCARGGVGSSWKAFDLWGPGTLVTISS
VL: APVLTQTPASVEVAVGGTVTIKCQASESISTALAWYQQKPGQPPKLLIYKASTLPSGVSSRFKGSGSGTEFALTISDLECDDAATYYCQQGFSSGNVHNAFGGGTEVVVKR
notes: Chimeric rabbit/human IgG1, expressed in CHO cells; also called ch48D2; 48D2 chimeric (ch) rabbit/human anti-human IL1RAP
EC50 (read off the curve) [1]: ~6 nM | IC50 of IL-1α signaling (HEK-Blue assay) [2]: 1.92 nM | IC50 of IL-1β signaling (HEK-Blue assay) [2]: 0.7 nM | IC50 of IL-33 signaling (HEK-Blue assay) [2]: 2.92 nM | IC50 of IL-36α signaling (HEK-Blue assay) [2]: 8.3 pM | IC50 of IL-36β signaling (HEK-Blue assay) [2]: 8.1 pM | IC50 of IL-36γ signaling (HEK-Blue assay) [2]: 0.0111 nM | Kd [3]: 2.67 nM | koff [3]: 0.000174 s⁻¹ | kon [3]: 65200 M⁻¹ s⁻¹ | binding result [4]: no binding (tested: 4000 ng/mL) | binding result [5]: no binding (tested: 4000 ng/mL)

B2: h48D2 VH5.GL:VL4 (antibody, human IgG1, kappa, L234A L235A, V domains shown)
VH: QEQLEESGGGLVKPGGTLSLTCTVSGPSLSHFDITWIRQPPGKGLEWIGTISPGVSTYYASWAKSRVTISVDTSLNTVSLKLSSVTAADTATYFCARGGVGSSWKAFDLWGPGTLVTISS
VL: ELVMTQSPSSVSASVGDRVTITCQASESISTALAWYQQKPGKAPKLLIYKASTLPSGVPSRFSGSGSGTDFTLTINSLQPEDFATYYCQQGFSSGNVHNAFGGGTKVEIKR
notes: Humanized and de-immunized; also called VL4:VH5.GL; 48D2 variant VH5.GL:VL4
IC50 of IL-1α signaling (HEK-Blue assay) [6]: 0.268 nM | IC50 of IL-1β signaling (HEK-Blue assay) [6]: 0.097 nM | IC50 of IL-33 signaling (HEK-Blue assay) [6]: 7.51 nM | IC50 of IL-36α signaling (HEK-Blue assay) [6]: 0.147 nM | IC50 of IL-36β signaling (HEK-Blue assay) [6]: 0.169 nM | IC50 of IL-36γ signaling (HEK-Blue assay) [6]: 0.206 nM | Kd [7]: 2.53 nM | IC50 of IL-33 signaling (HEK-Blue cells stably transfected with the IL-36 receptor) [8]: 0.324 nM | IC50 of IL-36α signaling (HEK-Blue cells stably transfected with the IL-36 receptor) [8]: 0.0557 nM | IC50 of IL-36β signaling (HEK-Blue cells stably transfected with the IL-36 receptor) [8]: 0.161 nM | IC50 of IL-36γ signaling (HEK-Blue cells stably transfected with the IL-36 receptor) [8]: 0.088 nM | binding result [9]: no binding (tested: 4000 ng/mL) | binding result [10]: no binding (tested: 4000 ng/mL) | EC50 (read off the curve) [11]: ~50 ng/mL | EC50 (read off the curve) [12]: ~50 ng/mL | EC50 (read off the curve) [13]: ~50 ng/mL | Kd [3]: 2.53 nM | koff [3]: 0.000197 s⁻¹ | kon [3]: 78000 M⁻¹ s⁻¹
